Experimental findings from PMC6018666, “Structural basis for terminal loop recognition and stimulation of pri-miRNA-18a processing by hnRNP A1” are described below.

One series addresses UP1(R75E/R88E) (UniProt P09651 1-196, R75E;R88E). Description: ITC; N=1.1; ITC: 20 mM Na phosphate pH 6.5, 100 mM NaCl, no DTT, 25 C; EMSA: 100 mM KCl, 20% glycerol, 0.2 mM EDTA, 100 mM Tris pH 8.0, 0.5 mM DTT, 0.5 mM ATP, 20 mM creatine phosphate, 3.2 mM MgCl2, 4 C; footprint: 12 mM Tris-HCl pH 7.5, 48 mM NaCl, 1.2 mM MgCl2, 37 C. As to conditions: protein: recombinant; tags: His tag removed by TEV; single strand.

The target of series [1] is T1, UP1 (hnRNP A1 RRM1-RRM2) (UniProt P09651 1-196). The series is described as follows: ITC; N=1.01; ITC: 20 mM Na phosphate pH 6.5, 100 mM NaCl, no DTT, 25 C; EMSA: 100 mM KCl, 20% glycerol, 0.2 mM EDTA, 100 mM Tris pH 8.0, 0.5 mM DTT, 0.5 mM ATP, 20 mM creatine phosphate, 3.2 mM MgCl2, 4 C; footprint: 12 mM Tris-HCl pH 7.5, 48 mM NaCl, 1.2 mM MgCl2, 37 C. As to conditions: protein: recombinant; tags: His tag removed by TEV; single strand. For orientation: Isothermal titration calorimetry measures the heat released or taken up as one component is titrated into another.

The target of a further series is UP1(R75E/R88A) (UniProt P09651 1-196, R75E;R88A). The series is described as follows: ITC; N=1.08; ITC: 20 mM Na phosphate pH 6.5, 100 mM NaCl, no DTT, 25 C; EMSA: 100 mM KCl, 20% glycerol, 0.2 mM EDTA, 100 mM Tris pH 8.0, 0.5 mM DTT, 0.5 mM ATP, 20 mM creatine phosphate, 3.2 mM MgCl2, 4 C; footprint: 12 mM Tris-HCl pH 7.5, 48 mM NaCl, 1.2 mM MgCl2, 37 C. Particulars: protein: recombinant; tags: His tag removed by TEV; single strand.

In series [2] the target is T1, UP1 (hnRNP A1 RRM1-RRM2). Description: ITC; N=0.98; ITC: 20 mM Na phosphate pH 6.5, 100 mM NaCl, no DTT, 25 C; EMSA: 100 mM KCl, 20% glycerol, 0.2 mM EDTA, 100 mM Tris pH 8.0, 0.5 mM DTT, 0.5 mM ATP, 20 mM creatine phosphate, 3.2 mM MgCl2, 4 C; footprint: 12 mM Tris-HCl pH 7.5, 48 mM NaCl, 1.2 mM MgCl2, 37 C. As to conditions: protein: recombinant; tags: His tag removed by TEV; single strand.

In series [3] the target is T1, UP1 (hnRNP A1 RRM1-RRM2). The series is described as follows: ITC; N=0.75; ITC: 20 mM Na phosphate pH 6.5, 100 mM NaCl, no DTT, 25 C; EMSA: 100 mM KCl, 20% glycerol, 0.2 mM EDTA, 100 mM Tris pH 8.0, 0.5 mM DTT, 0.5 mM ATP, 20 mM creatine phosphate, 3.2 mM MgCl2, 4 C; footprint: 12 mM Tris-HCl pH 7.5, 48 mM NaCl, 1.2 mM MgCl2, 37 C. As to conditions: protein: recombinant; tags: His tag removed by TEV; single strand.

The target in series [4] is T2, hnRNP A1 RRM1 (UniProt P09651 1-97). Description: ITC; N=1.01; ITC: 20 mM Na phosphate pH 6.5, 100 mM NaCl, no DTT, 25 C; EMSA: 100 mM KCl, 20% glycerol, 0.2 mM EDTA, 100 mM Tris pH 8.0, 0.5 mM DTT, 0.5 mM ATP, 20 mM creatine phosphate, 3.2 mM MgCl2, 4 C; footprint: 12 mM Tris-HCl pH 7.5, 48 mM NaCl, 1.2 mM MgCl2, 37 C. Particulars: protein: recombinant; tags: His tag removed by TEV; single strand.

The target of series [5] is T3, hnRNP A1 RRM2 (UniProt P09651 94-196). The series is described as follows: ITC; N=1.09; text gives 6.9; ITC: 20 mM Na phosphate pH 6.5, 100 mM NaCl, no DTT, 25 C; EMSA: 100 mM KCl, 20% glycerol, 0.2 mM EDTA, 100 mM Tris pH 8.0, 0.5 mM DTT, 0.5 mM ATP, 20 mM creatine phosphate, 3.2 mM MgCl2, 4 C; footprint: 12 mM Tris-HCl pH 7.5, 48 mM NaCl, 1.2 mM MgCl2, 37 C. As to conditions: protein: recombinant; tags: His tag removed by TEV; single strand.

The target in series [6] is T1, UP1 (hnRNP A1 RRM1-RRM2). The series is described as follows: ITC; N=1.35; ITC: 20 mM Na phosphate pH 6.5, 100 mM NaCl, no DTT, 25 C; EMSA: 100 mM KCl, 20% glycerol, 0.2 mM EDTA, 100 mM Tris pH 8.0, 0.5 mM DTT, 0.5 mM ATP, 20 mM creatine phosphate, 3.2 mM MgCl2, 4 C; footprint: 12 mM Tris-HCl pH 7.5, 48 mM NaCl, 1.2 mM MgCl2, 37 C. As to conditions: protein: recombinant; tags: His tag removed by TEV; hairpin.

Series [7] addresses T3, hnRNP A1 RRM2. Description: EMSA; ITC: 20 mM Na phosphate pH 6.5, 100 mM NaCl, no DTT, 25 C; EMSA: 100 mM KCl, 20% glycerol, 0.2 mM EDTA, 100 mM Tris pH 8.0, 0.5 mM DTT, 0.5 mM ATP, 20 mM creatine phosphate, 3.2 mM MgCl2, 4 C; footprint: 12 mM Tris-HCl pH 7.5, 48 mM NaCl, 1.2 mM MgCl2, 37 C. Particulars: protein: recombinant; tags: His tag removed by TEV; label: internal radiolabel. A general note: A gel shift assay detects complexes by their altered migration in electrophoresis.

Series [8] addresses T2, hnRNP A1 RRM1. The series is described as above. As to conditions: protein: recombinant; tags: His tag removed by TEV; label: internal radiolabel.
Series [9] has as its target T1, UP1 (hnRNP A1 RRM1-RRM2). Described as above. As to conditions: protein: recombinant; tags: His tag removed by TEV; label: internal radiolabel.
In series [10] the target is T1, UP1 (hnRNP A1 RRM1-RRM2). Description: ITC; not fitted by one-site model; ITC: 20 mM Na phosphate pH 6.5, 100 mM NaCl, no DTT, 25 C; EMSA: 100 mM KCl, 20% glycerol, 0.2 mM EDTA, 100 mM Tris pH 8.0, 0.5 mM DTT, 0.5 mM ATP, 20 mM creatine phosphate, 3.2 mM MgCl2, 4 C; footprint: 12 mM Tris-HCl pH 7.5, 48 mM NaCl, 1.2 mM MgCl2, 37 C. As to conditions: protein: recombinant; tags: His tag removed by TEV; hairpin.

The target in series [11] is T1, UP1 (hnRNP A1 RRM1-RRM2). Description: ITC; N=1.07; ITC: 20 mM Na phosphate pH 6.5, 100 mM NaCl, no DTT, 25 C; EMSA: 100 mM KCl, 20% glycerol, 0.2 mM EDTA, 100 mM Tris pH 8.0, 0.5 mM DTT, 0.5 mM ATP, 20 mM creatine phosphate, 3.2 mM MgCl2, 4 C; footprint: 12 mM Tris-HCl pH 7.5, 48 mM NaCl, 1.2 mM MgCl2, 37 C. Particulars: protein: recombinant, tags: His tag removed by TEV.

The target in series [12] is T1, UP1 (hnRNP A1 RRM1-RRM2). Description: ITC; N=1.06; ITC: 20 mM Na phosphate pH 6.5, 100 mM NaCl, no DTT, 25 C; EMSA: 100 mM KCl, 20% glycerol, 0.2 mM EDTA, 100 mM Tris pH 8.0, 0.5 mM DTT, 0.5 mM ATP, 20 mM creatine phosphate, 3.2 mM MgCl2, 4 C; footprint: 12 mM Tris-HCl pH 7.5, 48 mM NaCl, 1.2 mM MgCl2, 37 C. Particulars: protein: recombinant; tags: His tag removed by TEV; single strand.

For series [13], the target named is T1, UP1 (hnRNP A1 RRM1-RRM2). Description: ITC; N=1.08; ITC: 20 mM Na phosphate pH 6.5, 100 mM NaCl, no DTT, 25 C; EMSA: 100 mM KCl, 20% glycerol, 0.2 mM EDTA, 100 mM Tris pH 8.0, 0.5 mM DTT, 0.5 mM ATP, 20 mM creatine phosphate, 3.2 mM MgCl2, 4 C; footprint: 12 mM Tris-HCl pH 7.5, 48 mM NaCl, 1.2 mM MgCl2, 37 C. As to conditions: protein: recombinant; tags: His tag removed by TEV; single strand.

T1 sequence (P09651 1-196): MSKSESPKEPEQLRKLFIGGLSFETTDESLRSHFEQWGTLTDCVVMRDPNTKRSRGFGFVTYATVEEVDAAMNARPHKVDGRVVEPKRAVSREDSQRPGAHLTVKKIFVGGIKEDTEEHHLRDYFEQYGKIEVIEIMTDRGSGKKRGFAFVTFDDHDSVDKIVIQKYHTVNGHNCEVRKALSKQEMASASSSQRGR
T3 sequence (P09651 94-196): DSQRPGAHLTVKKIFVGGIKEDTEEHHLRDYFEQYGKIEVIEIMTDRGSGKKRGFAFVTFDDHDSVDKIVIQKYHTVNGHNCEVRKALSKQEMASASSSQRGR
T2 sequence (P09651 1-97): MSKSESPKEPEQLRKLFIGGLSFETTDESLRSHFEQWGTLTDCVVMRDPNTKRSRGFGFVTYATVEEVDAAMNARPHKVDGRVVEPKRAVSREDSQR
Sequence of UP1(R75E/R88A) (P09651 1-196 R75E/R88A): as the sequence (P09651 1-196) above, with R75E, R88A counted along it
Sequence of UP1(R75E/R88E) (P09651 1-196 R75E/R88E): as the sequence (P09651 1-196) above, with R75E, R88E counted along it

B1: 12-mer (ssRNA)
RNA: AGUAGAUUAGCA
Turning to B1, the Kd with UP1(R75E/R88E) turned out to be 0.0401 ± 0.0044 µM; in the series with UP1 (hnRNP A1 RRM1-RRM2) [1], 0.0155 ± 0.0034 µM; in the series with UP1(R75E/R88A), 0.019 ± 0.00205 µM.

B2: 12-mer-mut3 (ssRNA)
RNA: UUUAGAUUAGCA
As for B2, the Kd with UP1 (hnRNP A1 RRM1-RRM2) [2] came to 0.00833 ± 0.00135 µM.

B3: 7-mer (ssRNA)
RNA: AGUAGAU
Turning to B3, the Kd came out at 3.4 ± 0.12 µM with UP1 (hnRNP A1 RRM1-RRM2) [3], 20.4 ± 1.06 µM with hnRNP A1 RRM1 [4] and 6.8 ± 0.14 µM in the series with hnRNP A1 RRM2 [5].

B4: pri-mir-18a 71-mer (structured_RNA)
RNA: GGUUCUAAGGUGCAUCUAGUGCAGAUAGUGAAGUAGAUUAGCAUCUACUGCCCUAAGUGCUCCUUCUGGCC
As to B4, the Kd in the series with UP1 (hnRNP A1 RRM1-RRM2) [6] was determined as 0.148 ± 0.0089 µM.

B5: pri-mir-18a terminal loop RNA (structured_RNA)
RNA: GUGAAGUAGAUUAGC
With B5, the binding result with hnRNP A1 RRM2 [7] was “no binding”; with hnRNP A1 RRM1 [8], “no binding”; with UP1 (hnRNP A1 RRM1-RRM2) [9] it was “binds”.

B6: 17-mer (structured_RNA)
RNA: GGUGAAGUAGAUUAGCC
Take B6: the binding result in the series with UP1 (hnRNP A1 RRM1-RRM2) [10] is given as “binds”.

B7: 17-mer(A35C) (structured_RNA)
RNA: GGUGAAGUAGAUUCGCC
For the molecule B7, the Kd with UP1 (hnRNP A1 RRM1-RRM2) [11] (hairpin) turned out to be 3.1 ± 0.19 µM.

B8: 12-mer-mut1 (ssRNA)
RNA: AGUUUAUUAGCA
With B8, the Kd with UP1 (hnRNP A1 RRM1-RRM2) [12] was 0.154 ± 0.011 µM.

B9: 12-mer-mut2 (ssRNA)
RNA: AGUAGAUUUUCA
For the molecule B9, in the series with UP1 (hnRNP A1 RRM1-RRM2) [13], the Kd came out at 0.33 ± 0.0265 µM.

B10: 10-mer (ssRNA)
RNA: UAGAUUAGCA
Regarding B10, in the series with UP1 (hnRNP A1 RRM1-RRM2) [11] (single strand), the Kd was 0.0191 ± 0.00673 µM.

As a reminder, the Kd is the free concentration of one partner at which half of the binding sites on the other are occupied at equilibrium, for simple one-to-one binding.
